Experiments:
[1] = target: BT4410 (BtPL33^HA), PL33_1 hyaluronidase from Bacteroides thetaiotaomicron VPI-5482 (Bacteroides thetaiotaomicron VPI-5482); experiment: SEC-MALS + other: SAXS; SEC-coupled light scattering and SAXS of the purified enzyme in solution, oligomeric state; conditions not shown (SI Appendix)
[2] = target: the molecule itself; experiment: as above

stoichiometry N [1]	Molecule	stoichiometry N [2]
2	BT4410 (BtPL33^HA), PL33_1 hyaluronidase from Bacteroides thetaiotaomicron VPI-5482 (enzyme)	
	HMPREF1181_01744 (BsPL33^Heparosan), PL33_1 heparosanase from Bacteroides stercoris CC31F (enzyme) TERHLLEQTVSYEELGNVLRYRQSWVDYPAYTDRKSWKEKTAPEMRELIIRNGERALKHEWKPDLASDYLAFKRTGEIRTGRANHKALQALTLAELVEGQGRFMDAIIDGIWFLCETSWIHSAHLGFQKDRSGLPDRNEPTIELVVADIGAQMAWTYYFLKDEFDKVSPLINERIIEEVNRNLINPYFARDDYWWMGFGGQQVNNWNPWINYNVLQALMLIEKDPERVRQGVWKLMKSTDFFFSMYHEDGACDEGPTYWSGASGYALKFLDLLAKVTGNKVNIFNAPLLRNMAQYIYRVHIGGNYFVNFADSAPKVSPSPGILYRYGELTGDPAMMKFASFMAQQNQSFKDGVNGYFASALDELFMYKDIIGHPQGEPLTGTYWFKDTQICVARDTEGKSDGFFFAAKGGNNQESHNHNDVGSCILYYNALPVLIDAGVGTYTRQTFGPERYTIWTMQSDYHNLPLINGTPQKNGREFAAHSQQYKATAKTVSYQVDIAHAYPQEANVKSWIRNYTLHRKKDFTITDKWKLSACNEPSVLNLMTCCEVEIDRNKNITLTGEAGRFRVEYDKKLLSPATDTVELTDPKLIHSWNRKKLTRIRFTIVSQQISGESKLVIRKAQYHKTLND	2
	BcellWH2_04512 (BcPL33^HA), PL33_1 hyaluronidase from Bacteroides cellulosilyticus WH2 (enzyme, BcellWH2_04512, polysaccharide lyase family 33 subfamily 1 hyaluronidase of Bacteroides cellulosilyticus WH2; 68% identical to BtPL33^HA; Cloned in pET28a with either an N- or a C-terminal His6 tag; source: E. coli BL21 (DE3) or TUNER, purified (Talon cobalt IMAC, S200 Superdex SEC)) YTERNLLQKAAGSEEQLKEALVMNQKWVPYPAYNDRAGWNELLGTNKESLIRAGEKMLNYEWKVIRATDYLEYERSGERNIMQNPYEANRKAINALMLAELAEGKGRFIDQLINGAFYSCEMTSWVLSAHLVRQSTKRSLPDYREQVIDLGSGNFGSMLSWVYYFFHDSFDKIDPVISQRLRHTLQERILDPYMNNDREWWMAFQWKPGMIINNWNPWCNSNVLQCYLLLENDRDRLAKAVWRSMQSVDKFINFVKADGACEEGPSYWGHAAGKMYDYLQILSDGTDGKVSLFKEPMIRRMGEYISRTYVGNGWVVNFADASAKGGGDAPLIYRYGRAVGSEEMMQFAAYLLDGKRPSVPLGNDTFRSLQSILWNGELEKTTAAHTIPACTWYPETEFCYLTNKSGWFLATKGGFNNESHNHNDVGTFSLYVNTIPVLIDAGVGTYTRQTFSSERYTIWTMQSNYHNLPMINGVPQSFGQNYKATDVVCQPKKRFFSANIATAYPKEAEVNSWTRAYSLGDKQLTITDNFSLKSAKESNQVNFLTWGKVDISVPGKVTIDVQGQKVTLEYPGEFTATVETINLPDTRLSNVWGTEIYRIALKDKDARLTGKYKFVIK	2

— publication PMC11848413, “Bacterial polysaccharide lyase family 33: Specificity from an evolutionarily conserved binding tunnel” (Proceedings of the National Academy of Sciences of the …, 2025)
